# Source: US20040048327
# Experiments:
# [1] = tested on: T1, Cbz-Leu-ALeu-trans-EP-COOEt
# T1 sequence: LL
# [2] = tested on: T2, Ac-Leu-ALeu-trans-EP-COOEt
# T2 sequence: LL
# [3] = tested on: T3, Cbz-Leu-Leu-ALeu-(2R, 3R)-EP-COOEt
# T3 sequence: LLL
# [4] = tested on: T4, Cbz-Leu-AAbu-trans-EP-COOH
# T4 sequence: LX
# [5] = tested on: T5, Cbz-ALeu-trans-EP-COOEt
# T5 sequence: L
# [6] = tested on: T6, Cbz-Leu-ALeu-(2R, 3R)-EP-COOEt
# T6 sequence: LL
# [7] = tested on: T7, Cbz-Leu-ALeu-cis-EP-COOEt
# T7 sequence: LL
# [8] = tested on: T8, Cbz-Leu-AHph-(2S, 3S)-EP-COOEt
# T8 sequence: LX
# [9] = tested on: T9, Cbz-Leu-Leu-ALeu-(2S, 3S)-EP-COOEt
# T9 sequence: LLL
# [10] = tested on: T10, Cbz-Leu-Leu-ALeu-trans-EP-COOEt
# T10 sequence: LLL
# [11] = tested on: T11, Cbz-Leu-ALeu-(2S, 3S)-EP-COOEt
# T11 sequence: LL
# [12] = tested on: T12, Cbz-Leu-AHph-(2R, 3R)-EP-COOEt
# T12 sequence: LX
# [13] = tested on: T13, Cbz-Leu-Leu-ALeu-(2S, 3S)-EP-COOH
# T13 sequence: LLL
# [14] = tested on: T14, Ac-AHph-trans-EP-COOEt
# T14 sequence: X
# [15] = tested on: T15, Cbz-Leu-AHph-cis-EP-COOEt
# T15 sequence: LX
# [16] = tested on: T16, Cbz-AHph-trans-EP-COOEt
# T16 sequence: X
# [17] = tested on: T17, Ac-Leu-AHph-trans-EP-COOEt
# T17 sequence: LX
# [18] = tested on: T18, Cbz-Leu-AAbu-trans-EP-COOEt
# T18 sequence: LX
# [19] = tested on: T19, Cbz-Leu-AHph-(2S, 3S)-EP-COOH
# T19 sequence: LX
# [20] = tested on: T20, PhPr-Val-Ala-AAsp-(2S, 3S)-EP-COOCH2Ph
# T20 sequence: VAD
# [21] = tested on: T21, Cbz-Phe-ALeu-trans-EP-CH2CH2Ph
# T21 sequence: FL
# [22] = tested on: T22, Cbz-Phe-ALeu-trans-EP-COOEt
# T22 sequence: FL
# [23] = tested on: T23, Boc-Abu-AHph-trans-EP-CH2CH2Ph
# T23 sequence: XX
# [24] = tested on: T24, Cbz-Leu-Phe-AGln-(2R, 3R)-EP-COOEt
# T24 sequence: LFQ
# [25] = tested on: T25, Cbz-Phe-APhe-trans-EP-CH2CH2Ph
# T25 sequence: FF
# [26] = tested on: T26, PhPr-Val-Ala-AAsp-(2R, 3R)-EP-COOCH2Ph
# T26 sequence: VAD
# [27] = tested on: T27, Cbz-APhe-trans-EP-COOEt
# T27 sequence: F
# [28] = tested on: T28, Boc-Nle-AHph-trans-EP-COOEt
# T28 sequence: XX
# [29] = tested on: T29, Cbz-Leu-Glu-Thr-AAsp-(2S, 3S)-EP-COOEt
# T29 sequence: LETD
# [30] = tested on: T30, Suc-Np2-ALeu-trans-EP-COOEt
# T30 sequence: XL
# [31] = tested on: T31, Cbz-Asp-Glu-Val-AAsp-(2S, 3S)-EP-COOEt
# T31 sequence: DEVD
# [32] = tested on: T32, Cbz-Leu-Phe-AGln-(2S, 3S)-EP-COOEt
# T32 sequence: LFQ
# [33] = tested on: T33, Boc-Nva-AHph-trans-EP-COOEt
# T33 sequence: XX
# [34] = tested on: T34, Cbz-Ile-Glu-Thr-AAsp-(2S, 3S)-EP-COOEt
# T34 sequence: IETD
# [35] = tested on: T35, Cbz-Ala-Ala-NHN(CH2COOEt)-trans-EP-COOEt
# T35 sequence: AAD
# [36] = tested on: T36, Boc-Np2-ALeu-trans-EP-COOEt
# T36 sequence: XL
# [37] = tested on: T37, Cbz-Leu-Glu-Thr-AAsp-(2R, 3R)-EP-COOEt
# T37 sequence: LETD
# [38] = tested on: T38, Cbz-Ala-Ala-AAsn-trans-EP-COOCH2Ph
# T38 sequence: AAN
# [39] = tested on: T39, Boc-Nle-AHph-trans-EP-CH2CH2Ph
# T39 sequence: XX
# [40] = tested on: T40, Cbz-Ala-Ala-AAsn-(2S, 3S)-EP-COOEt
# T40 sequence: AAN
# [41] = tested on: T41, Cbz-Ala-Ala-AAsn-trans-EP-COOEt
# T41 sequence: AAN
# [42] = tested on: T42, Cbz-Ala-Ala-AAsn-cis-EP-COOEt
# T42 sequence: AAN
# [43] = tested on: T43, Cbz-Asp-Glu-Val-AAsp-(2R, 3R)-EP-COOEt
# T43 sequence: DEVD
# [44] = tested on: T44, Cbz-Ala-Ala-AAsn-(2R, 3R)-EP-COOEt
# T44 sequence: AAN
# [45] = tested on: T45, Cbz-Leu-Phe-AGln-trans-EP-COOEt
# T45 sequence: LFQ
# [46] = tested on: T46, PhPr-Val-Ala-AAsp-trans-EP-CH2CH2Ph
# T46 sequence: VAD
# [47] = tested on: T47, PhPr-Val-Ala-AAsp-trans-EP-COOCH2Ph
# T47 sequence: VAD
# [48] = tested on: T48, Nva-AHph-trans-EP-CH2CH2Ph.TFA
# T48 sequence: XX
# [49] = tested on: T49, Nva-AHph-trans-EP-COOEt.TFA
# T49 sequence: XX
# [50] = tested on: T50, Nle-AHph-trans-EP-COOEt.TFA
# T50 sequence: XX
substance,measurement,setting,value
calpain,kobs/[I],[1],3.09 M⁻¹ s⁻¹
same,kobs/[I],[2],1.48 M⁻¹ s⁻¹
same,kobs/[I],[3],NI
same,kobs/[I],[4],0.57 M⁻¹ s⁻¹
same,kobs/[I],[5],1.75 M⁻¹ s⁻¹
same,kobs/[I],[6],1.45 M⁻¹ s⁻¹
same,kobs/[I],[7],1.88 M⁻¹ s⁻¹
same,kobs/[I],[8],2.28 M⁻¹ s⁻¹
same,kobs/[I],[9],2.48 M⁻¹ s⁻¹
same,kobs/[I],[10],2.65 M⁻¹ s⁻¹
same,kobs/[I],[11],8.58 M⁻¹ s⁻¹
same,kobs/[I],[12],2.12 M⁻¹ s⁻¹
same,kobs/[I],[13],0.82 M⁻¹ s⁻¹
same,kobs/[I],[14],1.29 M⁻¹ s⁻¹
same,kobs/[I],[15],1.09 M⁻¹ s⁻¹
same,kobs/[I],[16],2.44 M⁻¹ s⁻¹
same,kobs/[I],[17],0.84 M⁻¹ s⁻¹
same,kobs/[I],[18],1.98 M⁻¹ s⁻¹
same,kobs/[I],[19],2.12 M⁻¹ s⁻¹
cathepsin B,kobs/[I],[20],0.81 M⁻¹ s⁻¹
same,kobs/[I],[1],23.3 M⁻¹ s⁻¹
same,kobs/[I],[21],NI
same,kobs/[I],[2],8 M⁻¹ s⁻¹
same,kobs/[I],[22],3.61 M⁻¹ s⁻¹
same,kobs/[I],[23],NI
same,kobs/[I],[24],NI
same,kobs/[I],[25],NI
same,kobs/[I],[26],NI
same,kobs/[I],[27],1.8 M⁻¹ s⁻¹
same,kobs/[I],[28],1.3 M⁻¹ s⁻¹
same,kobs/[I],[3],NI
same,kobs/[I],[29],NI
same,kobs/[I],[30],0.8 M⁻¹ s⁻¹
same,kobs/[I],[31],NI
same,kobs/[I],[32],4.73 M⁻¹ s⁻¹
same,kobs/[I],[4],NI
same,kobs/[I],[33],2.7 M⁻¹ s⁻¹
same,kobs/[I],[34],NI
same,kobs/[I],[35],2.53 M⁻¹ s⁻¹
same,kobs/[I],[36],0.39 M⁻¹ s⁻¹
same,kobs/[I],[5],4.43 M⁻¹ s⁻¹
same,kobs/[I],[6],NI
same,kobs/[I],[37],NI
same,kobs/[I],[7],6.27 M⁻¹ s⁻¹
same,kobs/[I],[38],1.09 M⁻¹ s⁻¹
same,kobs/[I],[8],0.67 M⁻¹ s⁻¹
same,kobs/[I],[39],NI
same,kobs/[I],[9],0.98 M⁻¹ s⁻¹
same,kobs/[I],[10],NI
same,kobs/[I],[11],1.8 M⁻¹ s⁻¹
same,kobs/[I],[40],6 M⁻¹ s⁻¹
same,kobs/[I],[12],NI
same,kobs/[I],[41],1.27 M⁻¹ s⁻¹
same,kobs/[I],[42],NI
same,kobs/[I],[13],7.02 M⁻¹ s⁻¹
same,kobs/[I],[14],40.6 M⁻¹ s⁻¹
same,kobs/[I],[43],NI
same,kobs/[I],[15],NI
same,kobs/[I],[44],NI
same,kobs/[I],[45],1.3 M⁻¹ s⁻¹
same,kobs/[I],[16],8.91 M⁻¹ s⁻¹
same,kobs/[I],[46],NI
same,kobs/[I],[17],0.59 M⁻¹ s⁻¹
same,kobs/[I],[47],< 10 M⁻¹ s⁻¹
chymotrypsin,kobs/[I],[29],NI
same,kobs/[I],[31],NI
same,kobs/[I],[37],NI
same,kobs/[I],[40],NI
same,kobs/[I],[41],NI
same,kobs/[I],[42],NI
same,kobs/[I],[43],NI
same,kobs/[I],[44],NI
same,kobs/[I],[46],NI
same,kobs/[I],[47],NI
dipeptidyl peptidase I,kobs/[I],[28],0.7 M⁻¹ s⁻¹
same,kobs/[I],[33],0.5 M⁻¹ s⁻¹
same,kobs/[I],[48],0.1 M⁻¹ s⁻¹
same,kobs/[I],[49],3.2 M⁻¹ s⁻¹
same,kobs/[I],[50],8.2 M⁻¹ s⁻¹
